Test [1] concerns the target Melbournevirus major capsid protein (Melbournevirus). The experiment in a line: cryo-EM structure.
Test [2] concerns the target Melbournevirus penton base protein (Melbournevirus). The experiment in a line: cryo-EM structure.

The term stoichiometry N denotes a count of units in the complex or per binding partner.

In turn, “Melbournevirus major capsid protein (natural protein)” came in with a stoichiometry N in test [1] of 3.

Take “Melbournevirus penton base protein (natural protein)”: the stoichiometry N in test [2] amounted to 5.

For the origin of these results see paper doi:10.1101/2021.07.14.452405.
